Results from patent US10143747B2, “Breast cancer therapeutics” (IMBA—INSTITUT FÜR MOLEKULARE BIOTECHNOLOGIE GMBH, priority 2010, dated 2018).

Test system: primary mouse mammary gland epithelial cells (MECs)
Test: Western blotting of RANKL-stimulated primary mouse mammary gland epithelial cells
Format: cell-based
Conditions: RANKL 1 μg/ml
Method: a, Western blotting for phosphorylated (P) IKKα, total IKKα, phosphorylated (P) p65 NFκB, total p65 NFκB, phosphorylated (P) IκBα, and total IκBα in isolated primary mouse mammary gland epithelial cells (MECs) in response to RANKL stimulation (1 μg/ml). β-actin is shown as loading control. b, Western blotting for IKKα, IKKβ, IKKγ, phosphorylated (P) p65 NFκB, total p65 NFκB, phosphorylated (P) IκBα, and total IκBα in pooled late stage mammary adenocarconimas (n=4 for each lane) that developed in control, RANK^Δmam and IKKΔ^Δmam females. β-actin is shown as loading control c, Expression of RANK, CyclinD1, and p21 mRNA in late stage mammary adenocacinomas that developed in control, RANK^Δmam, and IKKα^Δmam females. Expression was determined by qRT-PCR. Data are mean values+/−sem. n=4 per group. d, Soft-Agar Colony Formation Assay. Growth of human SKBR3 breast cancer cells in soft agar in response to stimulation with RANKL (1 μg/ml) or EGF (100 ng/ml). Anchorage-independent, macroscopic colonies formed after 18 days in culture with RANKL, which was prevented by the decoy receptor OPG (1 μg/ml). […] Apoptosis was detected by immunostaining for active Caspase 3. f, Apoptotic nuclei of epithelial cells (arrows) are shown for representative mammary gland sections. Magnifications×40. g, Quantification of mammary epithelial apoptosis. A minimum of 5000 nuclei was counted for each mouse. […]

B1: RANKL: recombinant RANKL protein, ligand of RANK, used as stimulus (1 μg/ml or 1 μg i.p.) (protein, UniProt O35235 139-316, looked up)
Tumor necrosis factor ligand …: FSGAPAMMEGSWLDVAQRGKPEAQPFAHLTINAASIPSGSHKVTLSSWYHDRGWAKISNMTLSNGKLRVNQDGFYYLYANICFRHHETSGSVPTDYLQLMVYVVKTSIKIPSSHNLMKGGSTKNWSGNSEFHFYSINVGGFFKLRAGEEISIQVSNPSLLDPDQDATYFGAFKVQDID
  p65 NFκB and IκBα phosphorylation: resulted in p65 NFκB and IκBα phosphorylation
  phosphorylation of p38-MAPKs and ERK: triggered phosphorylation of p38-MAPKs and ERK
